3 substances from paper PMC6479807 can be followed below.

For test [1], the target named is PsSYM10 extracellular domain (PsSYM10-ECD) (Pisum sativum (pea)).
For test [2] the target is unchanged. This is another data set of the same source.
For test [3] the target is unchanged. The source holds these as a separate data set.

As for “PsK1-ECD with P169S replacement in LysM3 (as in the k1-2 mutant line) (domain or fragment)”, the hypersensitive response in N. benthamiana leaves on co-production of full-length PsSYM10 and full-length PsK1-6xHIS with P169→S; percent of leaves with HR in test [1] stood at 53%.
“PsK1-ECD with S59F replacement in LysM1 (as in the k1-3 mutant line) (domain or fragment)” came in with a hypersensitive response in N. benthamiana leaves on co-production of full-length PsSYM10 and full-length PsK1-6xHIS with the LysM1 replacement (k1-3); percent of leaves with HR in test [2] of 93%.
The substance “PsK1 extracellular domain (PsK1-ECD), wild type (domain or fragment)” returned a hypersensitive response (cell death) in N. benthamiana leaves 48–72 h after infiltration, on co-production of full-length PsSYM10-3xFLAG and PsK1-6xHIS; percent of leaves with HR in test [3] of 90%.
